Experimental data reported in patent publication US20040054131A1.

Biological target: FGF receptor (FGFR) on Swiss 3T3 cells
Experiment: cell-based or functional assay

- EC50 of mitogenesis (BrdU incorporation) in Swiss 3T3 cells with 15 U/ml heparin: 0.14 nM
Substance: basic FGF (ligand)
